Assay results published in article PMC7135998.

Biological target: α-tubulin of purified porcine brain tubulin (porcine) (UniProt P02550)
Chain of UniProt P02550 (P02550 whole entry): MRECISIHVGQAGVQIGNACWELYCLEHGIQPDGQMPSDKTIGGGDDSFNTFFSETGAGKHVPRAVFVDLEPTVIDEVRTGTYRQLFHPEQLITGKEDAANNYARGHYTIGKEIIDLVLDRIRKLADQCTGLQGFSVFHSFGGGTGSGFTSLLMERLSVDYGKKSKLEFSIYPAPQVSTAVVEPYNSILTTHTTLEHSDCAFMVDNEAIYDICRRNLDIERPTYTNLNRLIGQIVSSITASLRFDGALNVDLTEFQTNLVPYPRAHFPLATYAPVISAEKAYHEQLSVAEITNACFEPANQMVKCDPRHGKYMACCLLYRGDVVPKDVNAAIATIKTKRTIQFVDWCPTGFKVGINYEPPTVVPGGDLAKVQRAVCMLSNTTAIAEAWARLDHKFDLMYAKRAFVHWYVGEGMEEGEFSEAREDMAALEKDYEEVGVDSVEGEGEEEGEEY

- methylation of purified tubulin by GST-SET8 ([3H]AdoMet, autoradiogram) with increasing concentrations of the LSF inhibitor FQI1, up to 100 μM: 3 fold
Substance: LSF present in purified porcine brain tubulin preparations (natural protein)
